The values that follow are results of earlier work, collected in article PMC3034196.

pKd: −log10 of the molar value.

For this data set, the target named is alkaline protease (Pseudomonas aeruginosa) (UniProt Q03023).
Chain of UniProt Q03023 (Q03023 10-479): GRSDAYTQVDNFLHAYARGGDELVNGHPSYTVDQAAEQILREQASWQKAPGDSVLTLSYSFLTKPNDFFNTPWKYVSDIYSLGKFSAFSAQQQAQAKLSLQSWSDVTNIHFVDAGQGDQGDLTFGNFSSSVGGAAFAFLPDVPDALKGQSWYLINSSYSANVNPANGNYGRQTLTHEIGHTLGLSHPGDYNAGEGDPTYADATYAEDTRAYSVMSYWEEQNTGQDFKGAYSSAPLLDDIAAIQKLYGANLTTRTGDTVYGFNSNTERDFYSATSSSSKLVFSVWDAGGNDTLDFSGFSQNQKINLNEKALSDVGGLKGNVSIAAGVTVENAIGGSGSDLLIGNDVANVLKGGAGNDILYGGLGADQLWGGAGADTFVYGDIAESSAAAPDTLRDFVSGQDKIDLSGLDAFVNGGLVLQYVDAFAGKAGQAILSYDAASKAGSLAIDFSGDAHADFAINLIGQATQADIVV

Regarding “APRin (alkaline protease inhibitor) (from UniProt Q03026)”, the negative-log Kd (pKd) was 11.40.

A word on the pKd: it is −log10 of the Kd, conventionally taken in molar units.
